Measurements published in EP2481750A1.

What was measured:
murine B7-DC (murine) [1] = target: murine B7-DC (murine) (UniProt Q9WUL5); assay: flow cytometry competition on murine bone marrow derived DC; DC preincubated with PD-1.Ig, then stained with sHIgM12
murine B7-DC (murine) [2] = target: murine B7-DC (murine) (UniProt Q9WUL5); assay: cell-based or functional assay
murine B7-DC (murine) [3] = target: murine B7-DC (murine) (UniProt Q9WUL5); assay: flow cytometry on 293T cells transfected with murine B7-DC
murine B7-DC (murine) [4] = target: murine B7-DC (murine) (UniProt Q9WUL5); assay: flow cytometry competition on murine bone marrow derived DC; DC preincubated with sHIgM12, then stained with PD-1.Ig

Chain of murine B7-DC (murine) (Q9WUL5 20-247): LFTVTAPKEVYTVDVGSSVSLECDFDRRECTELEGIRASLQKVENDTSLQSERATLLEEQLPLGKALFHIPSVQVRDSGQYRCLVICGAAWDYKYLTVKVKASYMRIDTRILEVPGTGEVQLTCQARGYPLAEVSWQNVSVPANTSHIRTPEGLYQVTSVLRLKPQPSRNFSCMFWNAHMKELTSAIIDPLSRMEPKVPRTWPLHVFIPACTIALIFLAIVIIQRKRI

| Substance | sHIgM12 staining remaining (% of the level without PD-1) (murine B7-DC (murine) [1]) | FITC-MFI (uptake of FITC-BSA by bone marrow derived DC in vitro) (murine B7-DC (murine) [2]) | FITC-MFI (uptake of FITC-OVA by splenic DC after treatment in vivo) (murine B7-DC (murine) [2]) | GFP+, CD11c+ DC recovered from draining lymph nodes, against polyclonal HIgM control (murine B7-DC (murine) [2]) | IL-12 p70 release by DC (ELISA), against LPS (murine B7-DC (murine) [2]) | ability of lymph node DC to induce an antigen-specific T cell response (murine B7-DC (murine) [2]) | percentage of cellular metabolism (Alamar Blue) maintained 24 hours after cytokine withdrawal (murine B7-DC (murine) [2]) | percent of transfected cells stained (murine B7-DC (murine) [3]) | PD-1 binding remaining (% of the level without sHIgM12) (murine B7-DC (murine) [4]) |
| --- | --- | --- | --- | --- | --- | --- | --- | --- | --- |
| PD-1.Ig fusion protein (Fc fusion) | 50% | – | – | – | – | – | – | – | – |
| sHIgM12 (pentameric human monoclonal IgM/kappa antibody, B7-DC cross-linking antibody) | – | 584 MFI | 116 MFI | 5 fold | 3 fold | 10 fold | 80% | 97% | 20% |
